We go through six substances from paper doi:10.1101/2021.06.21.449279.

Assay [1] concerns the target CwlDΔ25-His6 (C. difficile). Kind of assay: SEC.
The target of assay [2] is CwlD_(E199A)-His6 (C. difficile). Kind of assay: SEC. (In general: In gel filtration, larger molecules generally elute earlier.)
Assay [3] concerns the target CwlD_(E65A)-His6 (C. difficile). Briefly: SEC.
Assay [4] concerns the target CwlD_(H49A)-His6 (C. difficile). Briefly: SEC.
Assay [5] addresses GerSΔ22 (untagged) (C. difficile). Kind of assay: crystal structure.
For assay [6], the target named is CwlD R169D-His6 (C. difficile). Briefly: pull-down.
In assay [7] the target is CwlD R169Q-His6 (C. difficile). Kind of assay: pull-down.
Assay [8] addresses CwlDΔ25-His6 (C. difficile). Briefly: pull-down.
Assay [9] concerns the target GerSΔ22-His6 (C. difficile). Kind of assay: SEC.
Assay [10] concerns the target FLAG-tagged CwlD_(R169D) (C. difficile). Kind of assay: co-IP.
Assay [11] concerns the target FLAG-tagged CwlD_(H49A) (C. difficile). Briefly: co-IP.
In assay [12] the target is CwlD_(E199A)-FLAG (C. difficile). Kind of assay: co-IP.

On to GerSΔ22 (untagged) (domain or fragment), for which the stoichiometry N (usually the number of molecules, sites or subunits per partner or assembly) in assay [1] came to 1; in assay [2] it was 1; in assay [3], 1; in assay [4], 1; in assay [5] it was 2. Besides, the reduction of GerS co-purification against the wild-type complex in assay [6] and in assay [7] was 90% throughout.

In turn, “GerS D106R (untagged) (domain or fragment)” gave a reduction of GerS co-purification against the wild-type complex in assay [8] of 90%.

CwlDΔ25-His6 (domain or fragment): in [1], the stoichiometry N turned out to be 2.

Take “GerS D106A (untagged) (domain or fragment)”: in [8], the reduction of GerS co-purification against the wild-type complex is 90%.

Substance GerSΔ22-His6 (domain or fragment) registered a stoichiometry N in assay [9] of 2.

Consider “cleaved form of GerS (untagged, in sporulating C. difficile) (natural protein)”, for which the fold reduction of GerS pulled down against wild-type FLAG-tagged CwlD in [10] and in assay [11] was 5 fold each time. The same substance came in with a decrease of the interaction against the wild-type CwlD:GerS complex in assay [12] of 40%.
